Reference: US20110286970A1

Key:
[1] = molecular target: wild type human α-synuclein (human) (UniProt P37840); experiment: cell-based or functional assay
[2] = molecular target: 12 amino acid fragment corresponding to amino acids 71-82 of human α-synuclein (human); experiment: cell-based or functional assay

M13 filamentous phage (wild-type, prepared with M13K07 helper phage)
ELISA of α-synuclein oligomers in the insoluble fraction of SH-SY5Y cells [1]: 40 to 50 % reduction | Thioflavine T (Tht) fluorescence emission at 480 nm of the pre-aggregated peptide [2]: 43 % reduction
